The source of these data is the domain aggregation screens of Martell et al. (2025).

This series in a line: soluble fraction after stress (log2 fold change); higher = more stays soluble; pooled small domains, quantitative proteomics. The note with it: stress: pH 4. The essentials:
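Custom libraries of small protein domains were pooled and measured with high-throughput quantitative proteomics after pH 4 stress. The read-out is the fold change in the amount of each domain that stays soluble after the acid stress, taken as a measure of aggregation propensity. Fold changes are on a log2 scale, and higher values mean more of the domain stayed soluble.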

As to “HMYELREGDVVSVRILSQTGQNSYIASFAGGRFSVTSERAFAPGTVFSASVSLKDGTLVLSPL”, the “soluble fraction (log2)” value was 0.0111.
As for “HMYFEDEELDRFVGTPAGAYTEEDVEEFRDVLLSLDIEEVPSWVRSLQLRGIDFPETLRPELYLL”, the “soluble fraction (log2)” value was -2.72.
Under “HMYGQEVKVLGLFGDRAFIKVDEKSAVIRIGQSHQNVQLKSISNQKAILLVDNKDIALGLGDSYQSA” stands -0.397; under “HMYGVAEFDEKGNVLSIEEKPVQPKSNYAVVGLYFYPNKVVGVASGIKPSARGELEITTVNQTFLRDEELK”, 0.0152.
Under “HMYHNKFADLAGFIAFNEKNEEIFTFGKYKGQNVKEVFQRDIGYYGWLQNADFPLYTKKVFTAIQLRSR” stands -1.07; under “HMYHPGFEALREVARQGSFIKAARALGISGPAVSKQIKSLEARLNLVLLHRTTRAVTLTEAGQRLTEILD”, -0.437; under “HMYIDNVTIYDVGFNERIVHALERAGVKNLYDLSQMNFYQLQRIRNLGASSLEKVINRIHSYGILLKNES”, -0.761.
Under “HMYIEKTAYINDTAVNVRKSATTDSDVIKVLALNTEITIIGEENDWYKVKSGNDIGYIAKRLVSDQKKE” stands -0.109; under “HMYIKYETVLQNITERIAALRKNGTLVLDGERTLAAEFDASRGTIRKAMRQLEENGTILREGYVTRILPE”, -0.299.
Consider “HMYIVVPDLSKKDINEVANILAAQSLRFQVIDSANFRSDFPKNAVISQKPLAGSEVKVNKKIYLQLNPS”, for which the “soluble fraction (log2)” value was -0.608.
In the case of “HMYLEARVKSTTPILSKPNELGKSLGKLYTNDFVALVSLHKNGLDSYYRTANGGYINAADVVIDRDV”, the “soluble fraction (log2)” value is -0.133.
The value for “HMYLPLREVVFNALRTAIIHGEFKPGERLMEMHLAKSLGVSRTPVREAMRMLELEGLVVMIPKKGAEVAR” was -0.408; that for “HMYMKMNDRIRSRRKELKMTQSVLAKLVGVNRVTITGWESGDYKPGGENLQALAAALEKTPQWLLDGKD” was no less than 0.43; that for “HMYMTTADADMWKYVNTGRYNNDIQLMEEYKNRSMDSFEVITPEQQRKYNKAAMNLNSYYAWADPSYKPNP” was -0.888.
For “HMYMWQVEDLLRANELDIENIKKTIIDHYQLDDAQKSELTRWYEDLINMMRLEGVTKEGHLQINK”, the “soluble fraction (log2)” value was -1.75.
Under “HMYNSYALTARELELVNYVLKGNSRREMAEDSGLKENTVASYMKRLYRKIKVHSRKELKELFM” stands -0.422.
The value for “HMYPDNEQTLSKLAFEFFKKRNIPISQSNINQIVTKSLGDRENLYNELLKIENFSTSGKKLTDNVIKKLIN” was 0.176; that for “HMYPFSEETLKEKIREYLKTNRSINRRVLEREFYIRKQTALNWLNRLVDSGFLIKEGVRNSPVYFLAE” was 0.26.
In the case of “HMYPMQNYSTIIGVIELRQQSVGYATTQKRYGIGSSTVTLIMKRFKELGLTLEELRAMPPKAVEVAFYPPE”, the “soluble fraction (log2)” value worked out at 0.246.
“HMYPNEFPRKVMSVFESSGLEMFRTIEMLLAIPEYETPLPYGSGVSRSDIFVLAKSAGNLVSITV”: the “soluble fraction (log2)” value was -0.314.
Under “HMYQFFVDPGQIQGKRVTITGSDVNHIKNVLRMRIGEEIAVSNGKDGLEYRFGIDEILEDEVIGTLRFVKE” stands -1.87; under “HMYRIGELAKLADVTPDTIRYYEKQQMMDHDVRTEGGFRLYSDNDLQRLKFIRYARQLGFTLEAIRELLSI”, -0.51.
Under “HMYRWSEEIFEKLRSDIMAALDLSREQNDEEIYRFIETEVEEYSQNNLLTLKEREQLEHLLFNSL” stands -1.12.
“HMYSKVSFTVSVGMTSERVSASLKALGIIDDSAKFNRYLVSNGYSTRIKVGTVELQAGQSYAEIASKLV”: the “soluble fraction (log2)” value is 0.151.
Regarding “HMYSLSELERIKNFLTGYMSDYSIMMLDANEITNQVDISLKDYSDDNIESIKAAVLSHGGKTDYLNFIDDS”, the “soluble fraction (log2)” value was -1.01.
Under “HMYSQEEKRYMEIMEIKPQELSAENLKKQYKKLVKKYHPDLHQDDKQAAEEKFKQLTNAYQVLMRRF” stands -0.0526.
The value for “HMYSSASKEEIDQLMKRLILNLDAKGYFWPQDKEKSLKLYLHNLFSKLPLNSSDIRFLHGLIRALSEE” was -0.693; that for “HMYSSIIGIAFTRAENKPAAPTGGSYSNPHPVDGNWKAAPYDGDGNLWYSIRHFNENVDIQDREWSDPTLG” was 0.0834; that for “HMYSYSGSVINTYKVPVSVVLKDANGSAIASWDLPVDQSLGISAKDIATSSGTIEITGDGVNETKTVTFTK” was -0.159.
The value for “HMYTGSEGMAGLEGRAVTEVGPEAGTVLVKGEYWQARSDEPIATDRKIRVIRLEGLRLRVAEIHPEG” was 0.169; that for “HMYTPDYLSDLMVRMAHHSTAIEGNTLTQGETKSVLVDGYIPRAMDMRELNEVLNYKAFMTFLVE” was -0.35; that for “HMYTTHTQSELNEAARFNGRATYQKGIYYNESKKEHFKVVNGKYQALPNVKQVNGDSWIDKTGITHKG” was 0.202.
Take “HMYTVQQLARLAGITPRTLRHYDAIGLLKPTRVGENGYRYYGSEALLRLQSILLYRELDMPLEDIRRVLDS”: the “soluble fraction (log2)” value was -1.23.
As to “HMYVPEVPVPDLLGRSEEEAKNLIEDLGLVFKVSKREYSKEYDEGHVMEQSVDEGAKVKENYPVEVVISR”, the “soluble fraction (log2)” value is -0.325.
Under “HMYYDDEELDDYRGKASDAYTAAEVEQFEEVLTTMRPEEVHGWLRSLQLRGVALPDALKDEAYMIVSEQAE” stands -0.727.
The value for “HMYYIITNGKYWVIENPIRPGEYMESTKSSNAKQFTFKQAKNLLNARSKKLGWIRNGYSMVGED” was 0.427.
